From article PMC2791020

Columns and labels:
[1] = biological target: protein kinase A catalytic (C) subunit mutant K285P; assay: SPR
[2] = biological target: protein kinase A catalytic (C) subunit, wild type (UniProt P05132); assay: SPR

Row | Substance | Kd [1] | koff [1] | kon [1] | Kd [2] | koff [2] | kon [2]
1 | RIIβAB, truncated PKA regulatory subunit RIIβ (from UniProt P12369 108-402) (domain or fragment) | 111 nM | 0.0123 s⁻¹ |  |  |  | 
2 | RIαAB, truncated RIα(91–379) containing both cAMP-binding domains (domain or fragment) | 4.9 nM | 0.00443 s⁻¹ | 906000 M⁻¹ s⁻¹ | 0.9 nM | 0.000844 s⁻¹ | 919000 M⁻¹ s⁻¹
